The results in this text go back to patent US20190300590A1 (PROTAGONIST THERAPEUTICS, published 2019).

Sequences and labels used below:
T1: IL23R_huFC (human, UniProt Q5VWK5 24-353)
T1 sequence (looked up): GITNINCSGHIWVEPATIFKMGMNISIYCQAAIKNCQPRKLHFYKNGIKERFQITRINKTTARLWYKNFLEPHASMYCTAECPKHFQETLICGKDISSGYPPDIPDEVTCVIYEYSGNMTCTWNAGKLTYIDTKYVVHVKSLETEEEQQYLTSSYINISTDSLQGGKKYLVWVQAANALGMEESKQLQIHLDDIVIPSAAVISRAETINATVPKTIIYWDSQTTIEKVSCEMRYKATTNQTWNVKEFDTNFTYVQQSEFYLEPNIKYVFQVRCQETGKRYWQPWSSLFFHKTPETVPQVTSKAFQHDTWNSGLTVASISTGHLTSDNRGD

T2: IL-23R on human cells (IL-23R-expressing DB cells; human NK cells) (human, UniProt Q5VWK5 24-629)
T2 sequence (looked up): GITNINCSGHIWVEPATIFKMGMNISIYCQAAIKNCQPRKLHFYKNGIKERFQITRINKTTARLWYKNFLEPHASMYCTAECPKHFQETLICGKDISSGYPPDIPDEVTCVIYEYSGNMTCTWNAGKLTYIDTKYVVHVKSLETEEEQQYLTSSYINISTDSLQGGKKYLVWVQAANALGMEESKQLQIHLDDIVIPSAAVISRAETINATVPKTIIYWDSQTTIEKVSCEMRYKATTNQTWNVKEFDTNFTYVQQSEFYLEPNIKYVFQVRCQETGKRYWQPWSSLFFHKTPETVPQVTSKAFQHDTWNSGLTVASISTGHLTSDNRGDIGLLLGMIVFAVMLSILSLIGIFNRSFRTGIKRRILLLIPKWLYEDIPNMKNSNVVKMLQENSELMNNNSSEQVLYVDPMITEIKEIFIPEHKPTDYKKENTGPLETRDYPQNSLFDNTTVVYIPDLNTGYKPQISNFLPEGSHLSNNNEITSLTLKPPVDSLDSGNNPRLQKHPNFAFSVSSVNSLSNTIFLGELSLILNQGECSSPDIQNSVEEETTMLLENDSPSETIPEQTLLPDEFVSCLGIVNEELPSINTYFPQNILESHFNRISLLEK

B1: Ac-E-Cyclo-[[Abu]-QTWQC]-[Phe[4-(2-aminoethoxy)]]-[2-Nal]-[α-MeLys]-ENN-NH2 (peptide)
peptide: Ac-E[Abu(4-yl)]QTWQC[AEF][2Nal][αMeK]ENN-NH2
modifications: thioether 2-7
SMILES: CC(=O)N[C@@H](CCC(=O)O)C(=O)N[C@H]1CCSC[C@@H](C(=O)N[C@@H](Cc2ccc(OCCN)cc2)C(=O)N[C@@H](Cc2ccc3ccccc3c2)C(=O)N[C@@](C)(CCCCN)C(=O)N[C@@H](CCC(=O)O)C(=O)N[C@@H](CC(N)=O)C(=O)N[C@@H](CC(N)=O)C(N)=O)NC(=O)[C@H](CCC(N)=O)NC(=O)[C@H](Cc2c[nH]c3ccccc23)NC(=O)[C@H]([C@@H](C)O)NC(=O)[C@H](CCC(N)=O)NC1=O
B2: Ac-[(D)Gln]-Cyclo-[[Abu]-QTWQC]-[Phe[4-(2-aminoethoxy)]]-[2-Nal]-[α-MeLys]-ENN-NH2 (peptide)
peptide: Ac-[dQ][Abu]QTWQC[AEF][2Nal][αMeK]ENN-NH2
modifications: thioether 2-7
B3: Ac-Leu-Cyclo-[[Abu]-QTWQC]-[Phe[4-(2-aminoethoxy)]]-[2-Nal]-[α-MeLys]-ENN-NH2 (peptide)
peptide: Ac-L[Abu(4-yl)]QTWQC[AEF][2Nal][αMeK]ENN-NH2
modifications: thioether 2-7
SMILES: CC(=O)N[C@@H](CC(C)C)C(=O)N[C@H]1CCSC[C@@H](C(=O)N[C@@H](Cc2ccc(OCCN)cc2)C(=O)N[C@@H](Cc2ccc3ccccc3c2)C(=O)N[C@@](C)(CCCCN)C(=O)N[C@@H](CCC(=O)O)C(=O)N[C@@H](CC(N)=O)C(=O)N[C@@H](CC(N)=O)C(N)=O)NC(=O)[C@H](CCC(N)=O)NC(=O)[C@H](Cc2c[nH]c3ccccc23)NC(=O)[C@H]([C@@H](C)O)NC(=O)[C@H](CCC(N)=O)NC1=O
B4: Ac-[(D)Arg]-Cyclo-[[Abu]-QTWQC]-[Phe[4-(2-aminoethoxy)]]-[2-Nal]-[α-MeLys]-ENN-NH2 (peptide)
peptide: Ac-[dR][Abu]QTWQC[AEF][2Nal][αMeK]ENN-NH2
modifications: thioether 2-7
B5: Ac-Cyclo-[[Abu]-QTWQC]-[Phe[4-(2-aminoethoxy)]]-[2-Nal]-[α-MeLeu]-[Lys(Ac)]-NN-NH2 (peptide)
peptide: Ac-[Abu]QTWQC[AEF][2Nal][αMeL]K(Ac)NN-NH2
modifications: thioether 1-6
B6: Ac-(D)Glu-[Cyclo-[[Abu]-QTWQC]-[Phe[4-(2-aminoethoxy)]]-[2-Nal]-[α-MeLys]-ENN-NH2 (peptide)
peptide: Ac-[dE][Abu]QTWQC[AEF][2Nal][αMeK]ENN-NH2
modifications: thioether 2-7
B7: Ac-Cyclo-[[Abu]-QTWQC]-[Phe(4-OMe)]-[2-Nal][α-MeLys]-[Lys(Ac)]-NGE-NH2 (peptide)
peptide: Ac-[Abu]QTWQC[Phe(4-OMe)(3)][2Nal][αMeK]K(Ac)NGE-NH2
modifications: thioether 1-6
B8: Ac-Cyclo-[[Abu]-QTWQC]-[Phe(4-OMe)]-[2-Nal][α-MeLys]-[Lys(Ac)]-QG-NH2 (peptide)
peptide: Ac-[Abu]QTWQC[Phe(4-OMe)(3)][2Nal][αMeK]K(Ac)QG-NH2
modifications: thioether 1-6
B9: Ac-Cyclo-[[Abu]-QTWQC]-[Phe(4-OMe)]-[2-Nal]-[α-MeLys]-VNG-NH2 (peptide)
peptide: Ac-[Abu]QTWQC[Phe(4-OMe)][2Nal][αMeK]VNG-NH2
modifications: thioether 1-6
B10: Ac-Cyclo-[[Abu]-QTWQC]-[Phe(4-OMe)]-[2-Nal]-[Cha]-[Lys(Ac)]-NG-NH2 (peptide)
peptide: Ac-[Abu]QTWQC[Phe(4-OMe)][2Nal][Cha]K(Ac)NG-NH2
modifications: thioether 1-6
B11: Ac-Cyclo-[[Abu]-QTWQC]-[Phe(4-OMe)]-W-[α-MeOrn]-ENG-NH2 (peptide)
peptide: XQTWQCFWXENG
modifications: as bracketed in name; thioether cyclo
B12: Ac-Cyclo-[[Abu]-QTWQC]-[Phe(4-guanidino)]-W-[α-MeLys]-ENG-NH2 (peptide)
peptide: Ac-[Abu]QTWQC[Phe(4-guanidino)]W[αMeK]ENG-NH2
modifications: thioether 1-6
B13: Ac-Cyclo-[[Abu]-QTWQC]-[Phe(4-CONH2)]-[2-Nal][α-MeLys]-[Lys(Ac)]NG-NH2 (peptide)
peptide: Ac-[Abu]QTWQC[Phe(4-CONH2)][2Nal][αMeK]K(Ac)NG-NH2
modifications: thioether 1-6
B14: Ac-Cyclo-[[Abu]-QTWQC]-[2-Nal]-[2-Nal]-[α-MeLys]-ENG-NH2 (peptide)
peptide: Ac-[Abu]QTWQC[2Nal][2Nal][αMeK]ENG-NH2
modifications: thioether 1-6
B15: Ac-Cyclo-[[Abu]-QTWQC]-[Phe(4-Br)] W-[α-MeLys]-ENG-NH2 (peptide)
peptide: Ac-[Abu]QTWQC[Phe(4-Br)]W[αMeK]ENG-NH2
modifications: thioether 1-6

*1 amine or outer side, *2 acyl side, *3 side chain or, on linkers, in order; H or OH if unused. Bridges are numbered along the chain shown (N, C = ends). Primed or numbered codes have the meaning given here. [ ]: non-standard residue; d: D form. Phe(4-OMe)(3) = O-methyl-L-tyrosine (4-methoxy-L-phenylalanine), COc1ccc(C[C@H](N[*:1])C(=O)[*:2])cc1; Phe(4-OMe) = 4-methoxy-L-phenylalanine (O-methyl-L-tyrosine), COc1ccc(C[C@H](N[*:1])C(=O)[*:2])cc1; Phe(4-guanidino) = N=C(N)Nc1ccc(C[C@H](N)C(=O)O)cc1; Phe(4-CONH2) = NC(=O)c1ccc(C[C@H](N)C(=O)O)cc1; Abu(4-yl) = O=C([C@H](CC[*:3])N[*:1])[*:2]; Phe(4-Br) = N[C@@H](Cc1ccc(Br)cc1)C(=O)O; 2Nal = N[C@@H](Cc1ccc2ccccc2c1)C(=O)O; AEF = NCCOc1ccc(C[C@H](N)C(=O)O)cc1; Cha = N[C@@H](CC1CCCCC1)C(=O)O; αMeL = CC(C)C[C@](C)(N)C(=O)O; αMeK = C[C@](N)(CCCCN)C(=O)O; Abu = CC[C@H](N)C(=O)O A value given as a limit tells only on which side of the number the result lay.

The first assay deals with Rat IL-23R_huFC (rat). Kind of assay: rat ELISA vs IL-23.
The IC50 is the concentration that inhibits the measured activity by half. As for B1, the IC50 is less than 10 nM.
Same read-out and setting: with B2 the figure was less than 10 nM; with B3, less than 10 nM; with B4, less than 10 nM.
Still for that read-out and setting: with B5 the figure was less than 10 nM.
The same measure, in the same setting: the figure for B6 is less than 10 nM.

In a further assay the target is T1, IL23R_huFC. Kind of assay: human ELISA vs IL-23.
Consider B1, for which the IC50 is less than 10 nM.
On the same count and under the same terms, the figure for B2 is less than 10 nM; for B3 it is less than 10 nM; for B4 it is less than 10 nM.
Still for that read-out and setting: with B5 the figure was less than 10 nM.
Still for that read-out and setting: the figure for B6 is less than 10 nM.

The next assay deals with T2, IL-23R on human cells …. Kind of assay: cell-based or functional assay.
For the molecule B1, the “pStat3 HTRF IC50” value is less than 10 nM.
Same read-out and setting: the figure for B2 is less than 10 nM; for B3 it is less than 10 nM; for B4 it is less than 10 nM.
On the same count and under the same terms, with B7 the figure was less than 10 nM; with B8, less than 10 nM; with B9, less than 10 nM.
Still for that read-out and setting: with B5 the figure was less than 10 nM.
Regarding B6, the “pStat3 HTRF IC50” value was less than 10 nM.
On the same count and under the same terms, the figure for B10 is less than 10 nM.
With B11, the “pStat3 HTRF IC50” value was less than 10 nM.

For the next assay, the target named is Rat IL-23R_huFC (rat). Kind of assay: rat ELISA vs IL-23. The source holds these as a separate data set.
As for B12, the IC50 was 25 to 100 nM.
In turn, B13 gave an IC50 of 25 to 100 nM.
The same measure, in the same setting: the figure for B14 is 25 to 100 nM; for B15 it is 25 to 100 nM.
The same measure, in the same setting: with B7 the figure was 25 to 100 nM.
Regarding B8, the half-maximal inhibitory concentration (IC50) lay within 25 to 100 nM.
B9 returned an IC50 of 25 to 100 nM.
The same measure, in the same setting: the figure for B10 is 25 to 100 nM; for B11 it is 25 to 100 nM.

A further assay has as its target T1, IL23R_huFC. Kind of assay: human ELISA vs IL-23. The source holds these as a separate data set. (In an ELISA, binding on a coated surface is turned into a signal by an enzyme label.)
B14 returned an IC50 of 25 to 100 nM.
Same read-out and setting: the figure for B7 is 25 to 100 nM; for B8 it is 25 to 100 nM.
As to B9, the concentration for half-maximal inhibition (IC50) is 25 to 100 nM.
On to B10, for which the IC50 lay within 25 to 100 nM.
On the same count and under the same terms, with B11 the figure was 25 to 100 nM.
